{"source": "paper doi:10.1101/568618", "about": "(bioRxiv, 2019)", "molecules": {"B1": {"name": "Arabidopsis COP1^349-675 WD40 domain (domain or fragment)", "chain": "TFTRYSRLRVIAEIRHGDIFHSANIVSSIEFDRDDELFATAGVSRCIKVFDFSSVVNEPADMQCPIVEMSTRSKLSCLSWNKHEKNHIASSDYEGIVTVWDVTTRQSLMEYEEHEKRAWSVDFSRTEPSMLVSGSDDCKVKVWCTRQEASVINIDMKANICCVKYNPGSSNYIAVGSADHHIHYYDLRNISQPLHVFSGHKKAVSYVKFLSNNELASASTDSTLRLWDVKDNLPVRTFRGHTNEKNFVGLTVNSEYLACGSETNEVYVYHKEITRPVTSHRFGSPDMDDAEEEAGSYFISAVCWKSDSPTMLTANSQGTIKVLVLAA"}, "B2": {"name": "COP1^(349-675, Lys422Ala) WD40 domain (domain or fragment)", "chain": "B1 chain with K74A"}, "B3": {"name": "full-length HY5 protein (natural protein)", "chain": "MQEQATSSLAASSLPSSSERSSSSAPHLEIKEGIESDEEIRRVPEFGGEAVGKETSGRESGSATGQERTQATVGESQRKRGRTPAEKENKRLKRLLRNRVSAQQARERKKAYLSELENRVKDLENKNSELEERLSTLQNENQMLRHILKNTTGNKRGGGGGSNADASL"}, "B4": {"name": "recombinant light-activated full-length CRY2 (natural protein)", "chain": "MKMDKKTIVWFRRDLRIEDNPALAAAAHEGSVFPVFIWCPEEEGQFYPGRASRWWMKQSLAHLSQSLKALGSDLTLIKTHNTISAILDCIRVTGATKVVFNHLYDPVSLVRDHTVKEKLVERGISVQSYNGDLLYEPWEIYCEKGKPFTSFNSYWKKCLDMSIESVMLPPPWRLMPITAAAEAIWACSIEELGLENEAEKPSNALLTRAWSPGWSNADKLLNEFIEKQLIDYAKNSKKVVGNSTSLLSPYLHFGEISVRHVFQCARMKQIIWARDKNSEGEESADLFLRGIGLREYSRYICFNFPFTHEQSLLSHLRFFPWDADVDKFKAWRQGRTGYPLVDAGMRELWATGWMHNRIRVIVSSFAVKFLLLPWKWGMKYFWDTLLDADLECDILGWQYISGSIPDGHELDRLDNPALQGAKYDPEGEYIRQWLPELARLPTEWIHHPWDAPLTVLKASGVELGTNYAKPIVDIDTARELLAKAISRTREAQIMIGAAPDEIVADSFEALGANTIKEPGLCPSVSSNDQQVPSAVRYNGSKRVKPEEEEERDMKKSRGFDERELFSTAESSSSSSVFFVSQSCSLASEGKNLEGIQDSSDQITTSLGKNGCK"}, "B5": {"name": "CRY2^NC80 (CRY2^486-565) (domain or fragment)", "chain": "SRTREAQIMIGAAPDEIVADSFEALGANTIKEPGLCPSVSSNDQQVPSAVRYNGSKRVKPEEEEERDMKKSRGFDERELF"}}, "key": {"[1]": {"molecular_target": "UVR8^HY5C44 chimera (recombinant) (Arabidopsis | not stated)", "test": "SEC"}, "[2]": {"molecular_target": "B1", "test": "ITC"}, "[3]": {"molecular_target": "B2", "test": "ITC"}, "[4]": {"molecular_target": "B2", "test": "crystal structure"}, "[5]": {"molecular_target": "T1, UVR8^12-381 (UVR8 β-propeller core) (Arabidopsis, UniProt Q9FN03 12-381)", "T1 sequence": "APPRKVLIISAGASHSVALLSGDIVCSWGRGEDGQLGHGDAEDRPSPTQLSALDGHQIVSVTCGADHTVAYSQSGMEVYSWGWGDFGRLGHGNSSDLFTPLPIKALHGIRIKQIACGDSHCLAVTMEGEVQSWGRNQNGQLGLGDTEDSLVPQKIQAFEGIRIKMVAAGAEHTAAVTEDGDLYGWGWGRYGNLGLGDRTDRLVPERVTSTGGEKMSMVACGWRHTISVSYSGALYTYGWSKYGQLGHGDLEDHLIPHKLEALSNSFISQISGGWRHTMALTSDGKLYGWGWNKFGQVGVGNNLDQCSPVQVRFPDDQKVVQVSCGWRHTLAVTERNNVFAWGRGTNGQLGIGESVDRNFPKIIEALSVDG", "test": "grating-coupled interferometry"}, "[6]": {"molecular_target": "T2, full-length UVR8 (Arabidopsis, UniProt Q9FN03 1-440)", "T2 sequence": "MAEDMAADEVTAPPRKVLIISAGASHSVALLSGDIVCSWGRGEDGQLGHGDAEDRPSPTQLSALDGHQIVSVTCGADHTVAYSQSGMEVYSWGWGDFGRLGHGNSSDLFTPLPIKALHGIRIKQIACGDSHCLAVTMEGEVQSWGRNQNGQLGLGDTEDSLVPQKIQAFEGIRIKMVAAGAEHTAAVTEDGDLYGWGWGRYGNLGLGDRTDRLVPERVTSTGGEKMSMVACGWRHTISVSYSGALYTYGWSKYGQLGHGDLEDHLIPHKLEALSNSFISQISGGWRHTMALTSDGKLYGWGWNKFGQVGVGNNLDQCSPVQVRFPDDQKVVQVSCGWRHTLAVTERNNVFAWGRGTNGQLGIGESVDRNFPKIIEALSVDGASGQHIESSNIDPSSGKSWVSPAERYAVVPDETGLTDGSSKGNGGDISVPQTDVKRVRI", "test": "grating-coupled interferometry"}, "[7]": {"molecular_target": "B4", "test": "grating-coupled interferometry"}, "[8]": {"molecular_target": "B1", "test": "grating-coupled interferometry"}, "[9]": {"molecular_target": "B1", "test": "crystal structure"}}, "note": "Where a chain is given by its changes, count along the chain named.", "data": [{"molecule": "UVR8^HY5C44 chimera (recombinant)", "values": [{"measurement": "stoichiometry N", "setting": "[1]", "value": 2}]}, {"molecule": "RYAVVPDE", "note": "[UVR8^406-413 VP-peptide]", "values": [{"measurement": "binding result", "setting": "[2]", "value": "binds"}, {"measurement": "fold increase in affinity over wild-type COP1", "setting": "[3]", "value": "~10", "unit": "fold"}]}, {"molecule": "EIRRVPEFGG", "note": "[HY5^39-48 VP-peptide]", "values": [{"measurement": "binding result", "setting": "[4]", "value": "binds"}, {"measurement": "Kd", "setting": "[2]", "value": "~20000", "unit": "nM"}, {"measurement": "fold stronger binding than UVR8^406-413", "setting": "[2]", "value": "~8", "unit": "fold"}]}, {"molecule": "B1", "values": [{"measurement": "Kd", "setting": "[5]", "value": "~500", "unit": "nM"}, {"measurement": "Kd", "setting": "[6]", "value": "~1000", "unit": "nM"}, {"measurement": "binding result", "setting": "[7]", "value": "binds"}]}, {"molecule": "B2", "values": [{"measurement": "binding result", "setting": "[6]", "value": "binds"}]}, {"molecule": "B3", "values": [{"measurement": "Kd", "setting": "[8]", "value": "~1000", "unit": "nM"}]}, {"molecule": "GFGVVPSF", "note": "[COL3^287-294 VP-peptide]", "values": [{"measurement": "binding result", "setting": "[9]", "value": "binds"}, {"measurement": "binding result", "setting": "[3]", "value": "binds"}]}, {"molecule": "EDQMVPSIT", "note": "[CRY1^544-552 VP-peptide]", "values": [{"measurement": "binding result", "setting": "[9]", "value": "binds"}, {"measurement": "binding result", "setting": "[3]", "value": "binds"}]}, {"molecule": "EHFIVPDL", "note": "[STO^240-247 VP-peptide]", "values": [{"measurement": "binding result", "setting": "[9]", "value": "binds"}]}, {"molecule": "ELLMVPDM", "note": "[HYH^27-34 VP-peptide]", "values": [{"measurement": "binding result", "setting": "[9]", "value": "binds"}]}, {"molecule": "YLQIVPEI", "note": "[HFR1^57-64 VP-peptide]", "values": [{"measurement": "binding result", "setting": "[9]", "value": "binds"}]}, {"molecule": "GYGIVPSF", "note": "[CO^366-373 VP-peptide]", "values": [{"measurement": "binding result", "setting": "[2]", "value": "binds"}, {"measurement": "fold stronger binding than to wild-type COP1", "setting": "[3]", "value": "~4", "unit": "fold"}]}, {"molecule": "NDQQVPSAV", "note": "[CRY2^527-535 VP-peptide]", "values": [{"measurement": "binding result", "setting": "[2]", "value": "binds"}, {"measurement": "fold reduced binding against wild-type COP1", "setting": "[3]", "value": "~30", "unit": "fold"}]}, {"molecule": "B4", "values": [{"measurement": "fold increase in affinity over the isolated CRY2 VP-peptide", "setting": "[8]", "value": "~200", "unit": "fold"}]}, {"molecule": "B5", "values": [{"measurement": "binding result", "setting": "[8]", "value": "binds"}]}]}
